Measured values taken from the DeepSol protein solubility set.

Assay: soluble on expression in E. coli; label from the status in PepcDB or PDB records

| Sequence | soluble on expression in E. coli |
| --- | --- |
| GSAAATGPSFWLGNETLKVPLALFALNRQRLCERLRKNPAVQAGSIVVLQGGEETQRYCTDTGVLFRQESFFHWAFGVTEPGCYGVIDVDTGKSTLFVPRLPASHATWMGKIHSKEHFKEKYAVDDVQYVDEIASVLTSQKPSVLLTLRGVNTDSGSVCREASFDGISKFEVNNTILHPEIVECRVFKTDMELEVLRYTNKISSEAHREVMKAVKVGMKEYELESLFEHYCYSRGGMRHSSYTCICGSGENSAVLHYGHAGAPNDRTIQNGDMCLFDMGGEYYCFASDITCSFPANGKFTADQKAVYEAVLRSSRAVMGAMKPGVWWPDMHRLADRIHLEELAHMGILSGSVDAMVQAHLGAVFMPHGLGHFLGIDVHDVGGYPEGVERIDEPGLRSLRTARHLQPGMVLTVEPGIYFIDHLLDEALADPARASFFNREVLQRFRGFGGVRIEEDVVVTDSGIELLTCVPRTVEEIEACMAGCDKAFTPFSGPK | soluble |
| MGHHHHHHGSLVPRGSDVQELNSIIQRISKFDNILKDKTIINQQDLRQISWNGIPKIHRPVVWKLLIGYLPVNTKRQEGFLQRKRKEYRDSLKHTFSDQHSRDIPTWHQIEIDIPRTNPHIPLYQFKSVQNSLQRILYLWAIRHPASGYVQGINDLVTPFFETFLTEYLPPSQIDDVKIKDPSTYMVDEQITDLEADTFWCLTKLLEQITDNYIHGQPGILRQVKNLSQLVKRIDADLYNHFQNEHVEFIQFAFRWMNCLLMREFQMGTVIRMWDTYLSETSQEVTSSYSMSSNDIKPPVTPTEPRVASFVTPTKDFQSPTTALSNMTPNNAVEDSGKMRQSSLNEFHVFVCAAFLIKWSDQLMEMDFQETITFLQNPPTKDWTETDIEMLLSEAFIWQSLYKDATSHWL | soluble |
| MIQERKNLVTFGDQLVEAGRRLGRLCVGIDPHPSLLKQWGCDDGIAGLQRFTEICVEAFSGNVALVKPQVAFYEAWGAAGYQILESAISELRQAGTLVLSDAKRGDIGSTMAGYAQAWLAEESSLSSDAVTVSPFLGYGSLSPVLEVAASTNKGVFVLAATSNPEARSLQDRIGEDGLSISQLMVDSVALSNREHKENNHYGNVGVVIGATLAHPPQLERLNGPILLPGVGAQGATPADVARLTQGVQELAFANVSRGILKAGPSASALSTAISKFVEEFTN | not soluble |
| MVTPVSICNYISLPDDFPARNIAPQVKEVLKDFIDALSTIICDEEWRTSLNTNSATKKIFNNLDNLSYIQRTSFRGNDTLYNEKVQFKLTYPVKNGRHKENIEFQVVINLSPIYLDNFRHDGEINIFCAPNPKPVTMGRVFQTGVERVLFLFMNDFIEQFPMINLGAPIKRAHTPHIEPLPPDHHTAADYLRQFDLLVLNFISRGNFVILPRLWNNSEVHRWFVNKDPNLITAILDITDSELKEDLLQSLMDSLGSNKHVQPEVCICFLSLLAEQESPHFQDLFLFFANMLLHYHQFMNPNESDLNDVLMPASLSDDKIIKHMARRTLKLFVKNETPPKVTHEDLVKNRPRSPVRPPIPATAKTPDLPERH | not soluble |
| ENVLTQSPAIMSPSPGEKVTMTCRARSSVSSSYLHWYQQKSGASPKLWIYSTSNLASGVPARFSGSGSGTSYSLTISSVEAEDTATYYCQQYSGNPWTFGGGTKLEIKRADAAPTVSIFPPSSEQLTSGGASVVCFLNNFYPKDINVKWKIDGSERQNGVLNSWTDQDSKDSTYSMSSTLTLTKDEYERHNSYTCEATHKTSTSPIVKSFNRNEC | soluble |
| MAHHHHHHMPSSFAAQQQGSCNPHQNPVRSHKGGYLRCPFNISSSYAELAERRVHEDLACGRSRAAVADKDGVKAFPSTGPQVDSDGIDGDFAGRPWSRAGVGANRLSGKEKRTQQEQAEHIYGRGTLAEDDGAVAATGAVSVTSDLLQENMFAVDVRERAALQKVVPRAVREQVKRRKLEDVKKERLSPGNHCRHGCAPLHTDRAAGEEAGEDDDVESRSEDHMAGPPRERTRFSSPAAGSSRVGAPPLPHSAGSKDHPSGGSSSANVGAERSPRSGPSDASAQRPPLREPTPAPVSAKSNCPKNRMQMLDGLRASALMNKKGRR | soluble |
| MTLAVLASRAIAGWQAPAVRVETHLGSGLPAFAIVGLPDVEVRESRERVRAAIQNSGFDFPPGRITVNLSPADLPKASARFDLPIALGILLASGQVAASAAQTAALPDCVWAAELSLSGALVPLAAPLALALAVAREQPGATLVLPAGSAAVAAWVPGIRVLAAHTLGEAAAYLAGHAELAPAERRSWPEAEPGPCLSDVRGQPAARRALEVAAAGGHSLLMCGPPGAGKSMLAQRLPGLLPPLEQRQALEVAAIAGAGGAPEVLRGQPPFRAPHHSASAAALVGGGARPRPGEISLAHHGVLFLDELPEFERRALESLREPLETGKVVISRALHSVEYPAVFQLVAAMNPCPCGWRGHASKACRCTPDQVRRYAARVSGPLVDRIDLWIELPATEPQWLAEPPGEPSLPVRERVARCRQRQLARQGCLNAKLSGPALDAHCALGAAARTLLQQAMRRLGGSARAAHRALRVARTLADLAHEPEIGAAHIAEAVQYRRPT | not soluble |
| GPGSMSLASPSSLPPIALATQRLRTFAAQEEQAHGLTTSTALEEWATQSFEAETERINRELVQRRSQASVTFLPALYMRGRDPAADETTRLLHSTCKAFELDLRFKEIEKLDEMHAHLWTLLSAGDRTSISMEAYEQLLHDFNEWAAEHYGAQLLPPPSTVWDVSEDEDECILCRREVKEDDHEKSGGGNSSPSMSPLRPPVSLARPLSASTPPVLAATKAAPNDAPFTSGTRGASWDAVLQHVKRYRDQQRSDTSASASSFMRSHAHFEHLLRLAEDQPALGNVLYLCSVPPPRPDVQLFLSCPRNAERAVEIAAIYQTFAKQVSLVKCEAELIMWDSNNDGRLSEDEVENYVRDLAPRIAALQAMSKDMLPFYCCTVSRRLFWDLDPGNRGVLRIHSLLHSGIMDEWVSLQLMTEDDTQNWFGALVTQQLYNKFVLLDTRNTGTLNVENLRGYKKGLPTVLDDGLPPDVSPLCSLFIDRYFETNTLMTRSEMDYRKFVDFVIAVELLPQCSRPYFFWNILDMEGTGVLTPMIVNQFFRETHAKLVAAGLDVPSRETVVQEVFDLIEKAESLLITRDEFVRSPQAGLFVALLIDCLSFWTYENREQR | not soluble |
| MGSSHHHHHHSSGLVSRRHMNIDMAALHAIEVDRGISVNELLETIKSALLTAYRHTQGHQTDARIEIDRKTGVVRVIARETDEAGNLISEWDDTPEGFGRIAATTARQVMLQRFRDAENERTYGEFSTREGEIVAGVIQRDSRANARGLVVVRIGTETKASEGVIPAAEQVPGESYEHGNRLRCYVVGVTRGAREPLITLSRTHPNLVRKLFSLEVPEIADGSVEIVAVAREAGHRSKIAVRSNVAGLNAKGACIGPMGQRVRNVMSELSGEKIDIIDYDDDPARFVANALSPAKVVSVSVIDQTARAARVVVPDFQLSLAIGKEGQNARLAARLTGWRIDIRGDAPPPPPGQPEPGVSRGMAHDR | soluble |
| MGREVAESCVDTMLMEMVAMYSGRFYANKPELAARRIEAIGYQVGHQLSERYTMERPRFSDHLEAIKFICKDFWSEVFKKQIDNLKTNHRGTFVLQDNKFRWLSRVSIDPSSENETQDPSTPGESKAAQAVSMYLYFPCGIIRGVLSNLGIPCAVSADISSLPTCSFVIRVKA | not soluble |
| MMQRRAVFGLFLLPLARGQGTCAPTPALTQGPYYLRDVPQREDLREGLPGVPLRLLLRVRDRACRPLQGARVDLWHTDALGRYSGVNAPGTFCRGWQATDERGEVAFLTLFPGWYPSRTPHLHLRVEAGGRVFATQLFFPEEVQRQVYALPPYRERGMPRVNNRQDGLFRADLLLRLEREGEAYRGAFVLTLPG | soluble |
| MGSDKIHHHHHHMNPLDLIAKRAYPYETEKRDKTYLALNENPFPFPEDLVDEVFRRLNSDALRIYYDSPDEELIEKILSYLDTDFLSKNNVSVGNGADEIIYVMMLMFDRSVFFPPTYSCYRIFAKAVGAKFLEVPLTKDLRIPEVNVGEGDVVFIPNPNNPTGHVFEREEIERILKTGAFVALDEAYYEFHGESYVDFLKKYENLAVIRTFSKAFSLAAQRVGYVVASEKFIDAYNRVRLPFNVSYVSQMFAKVALDHREIFEERTKFIVEERERMKSALREMGYRITDSRGNFVFVFMEKEEKERLLEHLRTKNVAVRSFREGVRITIGKREENDMILRELEVFK | soluble |
| MSDPRDLMSEFQKLRVETSKIQNEFKEKPGYVEDKLHKNTQEICQQILKKQGKSQKSQENQNAFIENLMSELKTAKSKLNETENQISDLHEATKQQESQANLWNDLVAKISDKNLEMMLKIQKSQDLMIMKMQEGSAVQDVPIETEKSAKNGPFFEILVIWTDSRGPVVPGNHGKLRVCGSDTIRQIKPRINSLAGIDTISFRTFCDDKFLEDDHTLAHYNIREGSTICVFFH | not soluble |
| MPSPMSTLTTYSEPRGSTTYTLPAMEPSVSRLDTDMNSGLMPRYIFLTPLDSITLLASSGTLLEKPGQDIQRSSPTDSTSHSTRFIGGAPMKVATNVCFGLM | not soluble |
| AHHHHHHGSEIDKGLAKFGDSLINFLYSLALTEFLGKPTGDRVPNASLAIALELTGLSKNLRRVDKHAKGDYAEALIAKAWLMGLISEREAVEIIKKNLYPEVLDFSKKKEAIGRALAPLLVIISERLYSSQV | soluble |
| RAAIHDIATPVAIVDEQGRVVNLNAAAEQMLAVDKHEALTEPLNDFLGGDDIATDGGSSRVSIEADGRHREYKVQQTALRDETGTQLGYTVVFQDIT | soluble |
| MRPISNLNTSAATYIPPQQLPSSCLETLTLLVQMNNYIKRDADYSTGMAVAPLVPEEVHLLAAAMTTELHRHQFQPVVSANDLQLPEPFTFDVAGFTITFTKTQEHDNTGNLMKIAVSKSGVCTSTNITLELFHSIVTTLMSRSQYGTFDLWSVRPILTDESQNRVHEAARYSPAQQYGREETHFTNNGMREFGNMSPLAWRNDVELQQSCNTSNIPPNAANDDINNTRQTIEDQPEADEPQQYVKLTVDDMRKWAAMDQQARNALQGVSGWCTRNHFNIKNARNYLTDHGLNYAGQVKVNRPHEYAKFTLEHIRQWAALNKHVRKPVGYLEKWCKERNLAPTTARNYLKNDGLTALGELKLTGPQKWVTFTFGDIVQWANMTQEERNSAGGAEKWSKKRGFQWSTARSYLKSSGVTKQGARKLAWLKNSGNMSNPFYLAQPTSRRT | not soluble |
| MGDIHFIGSAANFFRSSTSDDWVRFHTFAEETLKGSQSLIALQWLVKVEPPQAETFTARMQQRFPEFTLYTVPKTGEIKYGFGTDDQAKYVLSDIYPLNYDNRKLLGFYSERERFKRILADIVVNRRPNVSDKVRLLQDGIDKSIVKDGMLVYHPVFSSEDDRSLLGVMVGVVRLSTYFEKLVQISVMEQDLDMRVIDTGFDSEDSPVLYQSPMWRADDEPKIERKLVLPNRDWVLEFELHQPINHSEELEHHHHHH | not soluble |
| MGSDKIHHHHHHGLDRWMSWKTAPYIYDELQDLPYRQVGVVLGTAKYYRTGVINQYYRYRIQGALNAYNSGKVNYLLLSGDNALQSYNEPMTMRRDLIKGGVDPADIVLDYAGFRTLDSIVRTRKVFDTNDFIIITQRFHCERALFIALHMGIQAQCYAVPSPKDMWSVRLREFGARFGALADLYIFKREPRFLGPLIPIPAQQHDVPDDAQSYPAVTPEQLLELQKEK | not soluble |
| PLEKTVRLHSSSGTTGNPTVILHTQKDLDEWANAVARCLYMVGLRPGDIFQNSSGYGMFTGGLGFQYGAERLGMLTVPAAAGNTKRQLKFISDFGTTALHAIPSYAARMYEIMQEMGIDPRRDTKLRTLIIGAEPHSEEQRRRIEDMLGVKAYNSFGMSEMCGPGVAFECQEQNGLHIW | not soluble |
